Patent US20260265393A1 (SHANGHAI CELGEN BIO PHARMACEUTICAL, published 2026)
Values joined by “and” are separate entries in the source; they are usually repeats but may differ in a detail not shown here. Equal entries are not always repeated. Where two headings read alike, the source gives them in different places. Blank lines part the entries; values can stand above or below the binder they belong to.

Tests used:
CD27-mFc (Kangdai) [1] = molecular target: T1, CD27-mFc (Kangdai) (human, UniProt P26842 21-192, limits assumed); experiment: ELISA on coated CD27-mFc
T1 construct: Bought reagent; also called antigen CD27-mFc; solid-phase human CD27; not shown: mouse Fc (mFc)
T1 sequence (looked up): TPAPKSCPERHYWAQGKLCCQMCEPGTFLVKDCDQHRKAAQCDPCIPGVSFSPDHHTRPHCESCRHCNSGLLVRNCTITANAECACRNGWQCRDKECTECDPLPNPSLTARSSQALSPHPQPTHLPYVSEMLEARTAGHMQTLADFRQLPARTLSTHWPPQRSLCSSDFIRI

[2] = molecular target: T2, antigen CD27 (soluble, as used in the BLI and SPR experiments) (UniProt P26842 21-192, limits assumed); experiment: SPR, Biacore T200, CM5 chip
T2 sequence (looked up): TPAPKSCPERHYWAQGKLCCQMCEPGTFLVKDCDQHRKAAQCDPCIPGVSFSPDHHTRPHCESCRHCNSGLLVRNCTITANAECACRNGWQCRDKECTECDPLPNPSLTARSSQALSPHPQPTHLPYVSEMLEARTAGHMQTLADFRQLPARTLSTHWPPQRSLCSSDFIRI

CD27-mFc (Kangdai) [3] = molecular target: T1, CD27-mFc (Kangdai); experiment: competition ELISA: CD70 coated, CD27-mFc plus antibody dilutions; competitor CD70
[4] = molecular target: T3, human CD27 (transmembrane protein) on the cell membrane (human, UniProt P26842 20-260); experiment: flow cytometry on CHO cells expressing human CD27
T3 construct: whole, on cells; One molecule is used for CD27 on CHO-CD27 cells, on human PBMC T and B cells and on Jurkat reporter cells; also called CHO-CD27
T3 sequence (looked up): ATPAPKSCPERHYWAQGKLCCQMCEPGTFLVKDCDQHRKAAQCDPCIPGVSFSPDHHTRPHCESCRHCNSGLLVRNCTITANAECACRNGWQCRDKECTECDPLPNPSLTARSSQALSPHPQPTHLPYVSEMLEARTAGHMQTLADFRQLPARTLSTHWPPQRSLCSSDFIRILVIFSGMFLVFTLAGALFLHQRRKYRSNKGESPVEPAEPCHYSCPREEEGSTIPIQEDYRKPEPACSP

CD27-mFc (Kangdai) [5] = molecular target: T1, CD27-mFc (Kangdai); experiment: competition ELISA: CD70 coated, CD27-mFc plus antibody dilutions; competitor CD70; remark: listed apart in the source
[6] = molecular target: T4, human CD64 on CHO-K cells (CHO-CD64) (human, UniProt P12314 16-374); experiment: flow cytometry on CHO-CD64 cells, FITC anti-human Fc detection (Example 16)
T4 construct: whole, on cells; also called membrane CD64
T4 sequence (P12314 16-374): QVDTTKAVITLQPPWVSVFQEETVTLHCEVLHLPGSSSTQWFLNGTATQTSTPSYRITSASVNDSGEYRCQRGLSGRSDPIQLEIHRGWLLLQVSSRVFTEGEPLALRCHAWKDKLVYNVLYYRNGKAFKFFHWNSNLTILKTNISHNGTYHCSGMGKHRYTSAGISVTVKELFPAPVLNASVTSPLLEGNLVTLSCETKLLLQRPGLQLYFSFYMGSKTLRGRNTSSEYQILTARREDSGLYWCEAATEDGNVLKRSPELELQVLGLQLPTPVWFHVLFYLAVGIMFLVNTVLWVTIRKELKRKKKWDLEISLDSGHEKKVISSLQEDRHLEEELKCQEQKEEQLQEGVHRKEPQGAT

CD27-mFc (Kangdai) [7] = molecular target: T1, CD27-mFc (Kangdai); experiment: ELISA on coated CD27-mFc; remark: listed apart in the source
CD27-mFc (Kangdai) [8] = molecular target: T1, CD27-mFc (Kangdai); experiment: ELISA on coated CD27-mFc (1 ug/mL), AP anti-human Fc detection, absorption at 405/490 nm (Example 15.2)
CD27-mFc (Kangdai) [9] = molecular target: T1, CD27-mFc (Kangdai); experiment: competition ELISA: coated CD70 (1 ug/mL), CD27-mFc plus antibody dilution, HRP anti-mouse Fc detection, absorption at 450/655 nm (Example 15.3); blocked ligand CD70
[10] = molecular target: T5, human CD32a on Jurkat cells (Jurkat-CD32a) (human, UniProt P12318 34-317); experiment: flow cytometry on Jurkat-CD32a cells, FITC anti-human Fc detection (Example 16)
T5 construct: whole, on cells; also called membrane CD32a
T5 sequence (looked up): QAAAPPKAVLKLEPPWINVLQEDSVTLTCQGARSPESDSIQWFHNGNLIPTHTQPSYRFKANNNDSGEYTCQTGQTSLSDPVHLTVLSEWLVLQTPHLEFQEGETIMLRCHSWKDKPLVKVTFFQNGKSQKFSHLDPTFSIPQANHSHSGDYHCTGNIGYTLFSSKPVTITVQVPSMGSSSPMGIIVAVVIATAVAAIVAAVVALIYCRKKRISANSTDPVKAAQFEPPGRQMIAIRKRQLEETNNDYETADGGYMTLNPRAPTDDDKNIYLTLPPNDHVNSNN

[11] = molecular target: T2, antigen CD27 (soluble, as used in the …); experiment: BLI, antibody captured on AHC probe, CD27 in solution
[12] = molecular target: T3, human CD27 (transmembrane protein) on …; experiment: flow cytometry on CHO cells expressing human CD27; remark: listed apart in the source
CD27-mFc (Kangdai) [13] = molecular target: T1, CD27-mFc (Kangdai); experiment: ELISA on coated CD27-mFc; remark: listed apart in the source
mouse CD27 = molecular target: T6, mouse CD27 (mouse, UniProt P41272 24-182, limits assumed); experiment: hybridoma screening; format not described
T6 sequence (looked up): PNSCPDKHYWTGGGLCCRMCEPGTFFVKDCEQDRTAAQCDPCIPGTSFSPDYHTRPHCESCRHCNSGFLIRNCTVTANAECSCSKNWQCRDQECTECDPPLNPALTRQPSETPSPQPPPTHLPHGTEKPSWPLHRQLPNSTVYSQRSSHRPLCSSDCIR

B1: 13B3-huH2L3 (P33430) humanized CD27 monoclonal antibody (antibody, human IgG1)
heavy: not shown
VL: DIVLTQSPATLSVSPGERVTLSCRASQSVSNSLHWYQQKPGQAPRLLIMYTSQSISGIPARFSGSGSGTDFTLTISSVEPEDFAVYYCQQSNSWPLTFGGGTKLELK
notes: also called huVH2 + huVL3
EC50 (CD27-mFc (Kangdai) [1]): 0.0418 µg/mL and 0.28 nM
Kd [2]: 391 pM
koff [2]: 0.000684 s⁻¹
kon [2]: 1.75e+06 M⁻¹ s⁻¹
IC50 (CD27-mFc (Kangdai) [3]): 1.95 µg/mL and 13.1 nM
EC50 [4]: 0.211 µg/mL and 1.41 nM

B2: 13B3-huH3L4 (P33434) humanized CD27 monoclonal antibody (antibody, V domains shown)
VH: QVQLVQSGAEVKKPGASVKVSCKTSGYAFSQSWMNWVRQAPGQGLEWIGRIYPGDGDTNYNGIFQGRVTLTADTSISTAYMELSRLRSDDTAVYYCASMIRTTYVMDHWGQGTTVTVSS
VL: EIVLTQSPATLSLSPGERATLSCRASQSVSNSLHWYQQKPGQAPRLLIMYTSQSISGIPARFSGSGSGTDFTLTISSLEPEDFAVYYCQQSNSWPLTFGGGTKLELK
notes: also called huVH3 + huVL4
EC50 (CD27-mFc (Kangdai) [1]): 0.0361 µg/mL and 0.242 nM
IC50 (CD27-mFc (Kangdai) [3]): 1.75 µg/mL and 11.7 nM
EC50 [4]: 0.242 µg/mL and 1.62 nM

B3: 13B3-huH4L3 (P33432) humanized CD27 monoclonal antibody (antibody, V domains shown)
VH: QVQLVQSGAEVKKPGASVKVSCKTSGYAFSQSWMNWVRQAPGQGLEWMGRIYPGDGDTNYAQKFQGRVTMTADTSISTAYMELSRLRSDDTAVYYCASMIRTTYVMDHWGQGTTVTVSS
VL: DIVLTQSPATLSVSPGERVTLSCRASQSVSNSLHWYQQKPGQAPRLLIMYTSQSISGIPARFSGSGSGTDFTLTISSVEPEDFAVYYCQQSNSWPLTFGGGTKLELK
IC50 (CD27-mFc (Kangdai) [3]): 1.91 µg/mL and 12.8 nM

B4: 13B3-huH2L4 (P33433) humanized CD27 monoclonal antibody (antibody, human IgG1)
heavy: not shown
VL: EIVLTQSPATLSLSPGERATLSCRASQSVSNSLHWYQQKPGQAPRLLIMYTSQSISGIPARFSGSGSGTDFTLTISSLEPEDFAVYYCQQSNSWPLTFGGGTKLELK
notes: also called huVH2 + huVL4; parent antibody (wild-type)
EC50 (CD27-mFc (Kangdai) [1]): 0.0409 µg/mL and 0.274 nM
IC50 (CD27-mFc (Kangdai) [3]): 1.91 µg/mL and 12.8 nM
IC50 (CD27-mFc (Kangdai) [5]): 1.31 µg/mL
EC50 [4]: 0.224 µg/mL and 1.5 nM
EC50 (read off the curve) [6]: ~0.7 µg/mL
EC50 (CD27-mFc (Kangdai) [7]): 0.029 µg/mL

B5: 13B3-huH2L3 (LALA) variant antibody (antibody, human IgG1, L234A L235A)
heavy: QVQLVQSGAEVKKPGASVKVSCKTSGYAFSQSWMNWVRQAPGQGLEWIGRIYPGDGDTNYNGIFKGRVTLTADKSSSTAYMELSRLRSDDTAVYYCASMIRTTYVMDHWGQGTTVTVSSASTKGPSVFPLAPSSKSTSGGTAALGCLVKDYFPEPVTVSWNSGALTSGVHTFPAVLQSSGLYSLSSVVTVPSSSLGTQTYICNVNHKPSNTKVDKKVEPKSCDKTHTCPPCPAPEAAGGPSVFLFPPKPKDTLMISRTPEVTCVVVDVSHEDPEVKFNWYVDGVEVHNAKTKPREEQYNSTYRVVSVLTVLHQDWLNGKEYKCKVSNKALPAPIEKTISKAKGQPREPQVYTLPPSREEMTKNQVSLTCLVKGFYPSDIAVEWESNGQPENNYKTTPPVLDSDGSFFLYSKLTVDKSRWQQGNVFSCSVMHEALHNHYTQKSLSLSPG
VL: DIVLTQSPATLSVSPGERVTLSCRASQSVSNSLHWYQQKPGQAPRLLIMYTSQSISGIPARFSGSGSGTDFTLTISSVEPEDFAVYYCQQSNSWPLTFGGGTKLELK
notes: The light chain is that of 13B3-huH2L3 (huVL3)
IC50 (CD27-mFc (Kangdai) [5]): 1.09 µg/mL
EC50 (CD27-mFc (Kangdai) [8]): 0.037 µg/mL

B6: 13B3-huH2L4 (LALA) variant antibody (antibody, human IgG1, L234A L235A)
heavy: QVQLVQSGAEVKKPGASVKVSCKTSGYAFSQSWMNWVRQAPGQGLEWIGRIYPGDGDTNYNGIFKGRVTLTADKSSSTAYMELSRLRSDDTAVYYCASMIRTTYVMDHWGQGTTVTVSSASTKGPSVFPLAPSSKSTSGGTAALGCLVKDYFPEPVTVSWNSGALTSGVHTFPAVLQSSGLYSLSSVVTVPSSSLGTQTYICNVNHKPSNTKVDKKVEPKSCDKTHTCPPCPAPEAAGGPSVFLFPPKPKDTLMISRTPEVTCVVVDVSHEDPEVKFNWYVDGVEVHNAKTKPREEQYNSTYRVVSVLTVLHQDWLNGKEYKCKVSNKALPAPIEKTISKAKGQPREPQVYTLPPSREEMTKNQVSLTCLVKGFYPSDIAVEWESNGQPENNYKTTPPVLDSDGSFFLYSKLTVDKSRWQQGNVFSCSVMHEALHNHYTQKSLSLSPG
VL: EIVLTQSPATLSLSPGERATLSCRASQSVSNSLHWYQQKPGQAPRLLIMYTSQSISGIPARFSGSGSGTDFTLTISSLEPEDFAVYYCQQSNSWPLTFGGGTKLELK
notes: The light chain is that of 13B3-huH2L4 (huVL4); also called mutant antibody
IC50 (CD27-mFc (Kangdai) [9]): 1.12 µg/mL
binding result [10]: no binding (tested: 10 µg/mL)
binding result [6]: no binding (tested: 10 µg/mL)
EC50 (CD27-mFc (Kangdai) [7]): 0.029 µg/mL

B7: 13B3-huH4L1 (P33425) humanized CD27 monoclonal antibody (antibody, V domains shown)
VH: QVQLVQSGAEVKKPGASVKVSCKTSGYAFSQSWMNWVRQAPGQGLEWMGRIYPGDGDTNYAQKFQGRVTMTADTSISTAYMELSRLRSDDTAVYYCASMIRTTYVMDHWGQGTTVTVSS
VL: EIVLTQSPDFLSVTPKEKVTLTCRASQSVSNSLHWYQQKPDQSPKLLIMYTSQSISGIPSRFSGSGSGTDFTLTINSVEAEDAATYYCQQSNSWPLTFGGGTKLELK
notes: also called huVH4 + huVL1
EC50 (CD27-mFc (Kangdai) [1]): 0.0371 µg/mL and 0.249 nM
Kd [2]: 699 pM
koff [2]: 0.00135 s⁻¹
kon [2]: 1.93e+06 M⁻¹ s⁻¹
EC50 [4]: 0.19 µg/mL and 1.27 nM

B8: 13B3-huH2L2 (P33426) humanized CD27 monoclonal antibody (antibody, V domains shown)
VH: QVQLVQSGAEVKKPGASVKVSCKTSGYAFSQSWMNWVRQAPGQGLEWIGRIYPGDGDTNYNGIFKGRVTLTADKSSSTAYMELSRLRSDDTAVYYCASMIRTTYVMDHWGQGTTVTVSS
VL: IVLTQSPDFQSVTPKEKVTITCRASQSVSNSLHWYQQKPDQSPKLLIMYTSQSISGVPSRFSGSGSGTDFTLTINSLEAEDAATYYCQQSNSWPLTFGGGTKLELK
notes: also called huVH2 + huVL2
EC50 (CD27-mFc (Kangdai) [1]): 0.0486 µg/mL and 0.325 nM
Kd [2]: 643 pM
koff [2]: 0.00106 s⁻¹
kon [2]: 1.65e+06 M⁻¹ s⁻¹
IC50 (CD27-mFc (Kangdai) [3]): 1.92 µg/mL and 12.8 nM
EC50 [4]: 0.221 µg/mL and 1.48 nM

Next, values leading:

Kd [11]: 1300 pM
koff [11]: 0.00016 s⁻¹
kon [11]: 123000 M⁻¹ s⁻¹
EC50 [12]: ~90.6 µg/mL
EC50 (CD27-mFc (Kangdai) [13]): 0.0754 µg/mL
B9: 17H8-hFc human-mouse chimeric CD27 monoclonal antibody (antibody, V domains shown)
VH: EVKLEESGGGLVQPGGSMKLSCVASGFTFSNYWMNWVRQSPEKGLEWVAEIRLKSNNYATYYAESVKGRFTISRDDSKSSVYLQMNSLRGEDTGIYYCTLYDSSYYYAMDYWGQGTSVTVSS
VL: DVVLTQTPLSLPVNIGDQASISCKSTQSLLHSDGFTYLDWYLQKPGQSPQLLIYLVSNRFLGVPDRFSGSGSRTDFTLKISRVEAEDLGVYYCFQSNYLPLTFGGGTKLEI
notes: Mouse 17H8 variable regions on human constant regions

binding result (mouse CD27): no binding
B10: 17H8 anti-human CD27 mouse monoclonal antibody (hybridoma clone) (antibody, V domains shown)
VH: EVKLEESGGGLVQPGGSMKLSCVASGFTFSNYWMNWVRQSPEKGLEWVAEIRLKSNNYATYYAESVKGRFTISRDDSKSSVYLQMNSLRGEDTGIYYCTLYDSSYYYAMDYWGQGTSVTVSS
VL: DVVLTQTPLSLPVNIGDQASISCKSTQSLLHSDGFTYLDWYLQKPGQSPQLLIYLVSNRFLGVPDRFSGSGSRTDFTLKISRVEAEDLGVYYCFQSNYLPLTFGGGTKLEI
notes: also called 17H8-1-1

binding result (mouse CD27): no binding
B11: 13B3 anti-human CD27 mouse monoclonal antibody (hybridoma clone) (antibody, V domains shown)
VH: QVQLQQSGPEQVKPGASVKISCKTSGYAFSQSWMNWVKQRPGQGLEWIGRIYPGDGDTNYNGIFKGKATLTADKSSSTAYMQLSSLTSLDSAVYFCASMIRTTYVMDHWGQGTSVTVTS
VL: DIVLTQSPATLSVTPGDSVSLSCRASQSVSNSLHWYQQKSHESPRLLIMYTSQSISGIPSRFSGSGSGTDFTLSINSVETEDFGMYFCQQSNSWPLTFGAGTKLELK
notes: also called 16B1-1-1

binding result (mouse CD27): no binding
B12: 16B1 anti-human CD27 mouse monoclonal antibody (hybridoma clone) (antibody, V domains shown)
VH: QVQLQQSGPEQVKPGASVKISCKTSGYAFSQSWMNWVKQRPGQGLEWIGRIYPGDGDTNYNGIFKGKATLTADKSSSTAYMQLSSLTSLDSAVYFCASMIRTTYVMDHWGQGTSVTVTS
VL: DIVLTQSPATLSVTPGDSVSLSCRASQSVSNSLHWYQQKSHESPRLLIMYTSQSISGIPSRFSGSGSGTDFTLSINSVETEDFGMYFCQQSNSWPLTFGAGTKLELK
notes: Tested as hybridoma supernatant; also called 16B1-1-1
